According to article PMC4402209:

Molecular target: KCTD12 (UniProt Q6WVG3)
Test: anti-Rluc IP of Rluc-KCTD12, GB2 blot
Details: reference: GB2-WT, no 8-Br-cAMP; sites S892

GABAB2 (GB2) (from UniProt O88871) GB2-WT, 8-Br-cAMP 1 mM 30 min
percent of reference: 103%
